Results taken from PMC12474171.

Experiments:
[1] = target: AAVpo.6 capsid (porcine adeno-associated virus po.6; VP1, VP2 and VP3) (adeno-associated virus AAVpo.6 (isolated from porcine tissues)); assay: cryo-EM structure
[2] = target: AAVpo.1 capsid (porcine adeno-associated virus po.1; VP1, VP2 and VP3) (adeno-associated virus AAVpo.1 (isolated from porcine tissues)); assay: cryo-EM structure

Substance | stoichiometry N [1] | stoichiometry N [2]
AAVpo.6 capsid (porcine adeno-associated virus po.6; VP1, VP2 and VP3) (complex) | 60 | –
AAVpo.1 capsid (porcine adeno-associated virus po.1; VP1, VP2 and VP3) (complex) | – | 60
